Experimental data published in patent US20100144530A1, “IDENTIFICATION OF A NEW CLASS OF EPSP SYNTHASES” (priority 2005, published 2010).

System: ΔaroA E. coli cells
Assay: Complementation of ΔaroA E. coli cells (functional EPSP synthase)
Type: cell-based
Settings: plasmid transformed into ΔaroA E. coli cells

Molecule | Complementation of the aroA deletion
grg6: EPSP synthase ORF from Pseudomonas syringae pv. tomato strain DC3000, in plasmid pAX703 (SEQ ID NO:1/2) (protein) MRPQATLTVMPVERPLVGRVSPPGSKSITNRALLLAGLAKGTSRLTGALKSDDTRVMSEALRLMGVQVDEPDDSTFVVTSSGHWQAPQQALFLGNAGTATRFLTAALANFEGDFVVDGDEYMRKRPIGPLVDALQRMGVEISAPSGCPPVAIKGKGGLQAGRIEIDGNLSSQYVSALLMAGACGKGSLEVALTGSEIGARGYVDLTLAAMQAFGAEVQAIGDAAWKVSATGYHATDFHIEPDASAATYLWAAQALTEGNIDLGVASDAFTQPDALASQIIDSFPNMPAVIDGSQMQDAIPTLAVLAAFNRQPVRFVGIANLRVKECDRISALCDGLCAIAPGLAVEEGDDLIVHANPALAGTTVNALIDTHSDHRIAMCFALAGLKIKGIHIQDPDCVAKTYPGYWDALASLGVSVQR | complement the deletion
grg9: EPSP synthase ORF from Agrobacterium tumefaciens strain C58, in plasmid pAX702 (SEQ ID NO:3/4) (protein) MIELTITPPGHPLSGKVEPPGSKSITNRALLLAGLAKGKSHLSGALKSDDTLYMAEALREMGVKVTEPDATTFVVEGTGVLQQPEKPLFLGNAGTATRFLTAAGALVDGAVIIDGDEHMRKRPILPLVQALRALGVEADAPTGCPPVTVRGKGMGFPKGSVTIDANLSSQYVSALLMAAACGDKPVDIILKGEEIGAKGYIDLTTSAMEAFGAKVERVSNAIWRVHPTGYTATDFHIEPDASAATYLWGAELLTGGAIDIGTPADKFTQPDAKAYEVMAQFPHLPAEIDGSQMQDAIPTIAVIAAFNETPVRFVGIANLRVKECDRIRAVSLGLNEIREGLAHEEGDDLIVHADPSLAGQTVDASIDTFADHRIAMSFALAALKIGGIAIQNPACVAKTYPGYWKALASLGVDYTEKESAAEPQH | complement the deletion
